Measured values published in IntAct's records for PubMed 16778768.

B1: High osmolarity signaling protein SHO1 (Saccharomyces cerevisiae), P40073 (parent)
chain: MSISSKIRPTPRKPSRMATDHSFKMKKFYADPFAISSISLAIVSWVIAIGGSISSASTNESFPRFTWWGIVYQFLIICSLMLFYCFDLVDHYRIFITTSIAVAFVYNTNSATNLVYADGPKKAAASAGVILLSIINLIWILYYGGDNASPTNRWIDSFSIKGIRPSPLENSLHRARRRGNRNTTPYQNNVYNDAIRDSGYATQFDGYPQQQPSHTNYVSSTALAGFENTQPNTSEAVNLHLNTLQQRINSASNAKETNDNSNNQTNTNIGNTFDTDFSNGNTETTMGDTLGLYSDIGDDNFIYKAKALYPYDADDDDAYEISFEQNEILQVSDIEGRWWKARRANGETGIIPSNYVQLIDGPEEMHR
partner: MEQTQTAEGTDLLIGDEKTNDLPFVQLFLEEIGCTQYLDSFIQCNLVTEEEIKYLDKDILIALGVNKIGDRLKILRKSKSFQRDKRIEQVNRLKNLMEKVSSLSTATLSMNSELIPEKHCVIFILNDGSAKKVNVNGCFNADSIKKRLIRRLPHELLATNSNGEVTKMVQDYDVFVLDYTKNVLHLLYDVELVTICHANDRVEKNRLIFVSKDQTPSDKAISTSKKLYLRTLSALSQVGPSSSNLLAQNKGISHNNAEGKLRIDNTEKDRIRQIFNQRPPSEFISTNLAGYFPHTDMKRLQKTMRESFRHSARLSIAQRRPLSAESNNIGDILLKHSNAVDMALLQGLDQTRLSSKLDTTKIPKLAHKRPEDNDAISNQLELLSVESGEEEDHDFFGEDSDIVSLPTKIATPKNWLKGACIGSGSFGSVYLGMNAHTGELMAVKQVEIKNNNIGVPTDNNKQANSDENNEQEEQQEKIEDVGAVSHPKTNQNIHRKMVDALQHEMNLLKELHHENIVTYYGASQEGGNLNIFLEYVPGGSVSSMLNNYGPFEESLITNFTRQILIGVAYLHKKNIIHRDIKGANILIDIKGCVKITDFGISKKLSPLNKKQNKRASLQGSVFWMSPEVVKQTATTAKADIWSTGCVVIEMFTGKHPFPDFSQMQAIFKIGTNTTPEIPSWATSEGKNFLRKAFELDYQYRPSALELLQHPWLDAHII
B2: High osmolarity signaling protein SHO1 (Saccharomyces cerevisiae), P40073 (parent)
chain: B1 chain
partner: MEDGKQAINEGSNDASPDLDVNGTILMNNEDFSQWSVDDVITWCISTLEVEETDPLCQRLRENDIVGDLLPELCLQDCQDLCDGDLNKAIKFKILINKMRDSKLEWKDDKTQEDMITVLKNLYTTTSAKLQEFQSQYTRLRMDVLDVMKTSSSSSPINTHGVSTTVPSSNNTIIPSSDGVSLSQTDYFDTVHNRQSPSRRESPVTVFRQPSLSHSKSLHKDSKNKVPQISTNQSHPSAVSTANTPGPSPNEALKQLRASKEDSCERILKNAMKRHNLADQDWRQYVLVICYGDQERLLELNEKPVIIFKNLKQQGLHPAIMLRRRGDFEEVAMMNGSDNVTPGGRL

Variants of: B1
Conditions: with ste11_yeast STE11, P23561

effect of a mutation on the interaction | Variant
increasing interaction | R342G
increasing interaction | G346S

Variants of: B2
Conditions: with ste50_yeast STE50, P25344

effect of a mutation on the interaction | Variant
increasing interaction | G346S
increasing interaction | R342G
